The target in the experiment is prostate specific membrane antigen (PSMA) (human) (UniProt Q04609). In words: FACS on LNCaP (PSMA+) cells; negative control, background signal.
prostate specific membrane antigen (PSMA) (human), sequence (Q04609 whole entry): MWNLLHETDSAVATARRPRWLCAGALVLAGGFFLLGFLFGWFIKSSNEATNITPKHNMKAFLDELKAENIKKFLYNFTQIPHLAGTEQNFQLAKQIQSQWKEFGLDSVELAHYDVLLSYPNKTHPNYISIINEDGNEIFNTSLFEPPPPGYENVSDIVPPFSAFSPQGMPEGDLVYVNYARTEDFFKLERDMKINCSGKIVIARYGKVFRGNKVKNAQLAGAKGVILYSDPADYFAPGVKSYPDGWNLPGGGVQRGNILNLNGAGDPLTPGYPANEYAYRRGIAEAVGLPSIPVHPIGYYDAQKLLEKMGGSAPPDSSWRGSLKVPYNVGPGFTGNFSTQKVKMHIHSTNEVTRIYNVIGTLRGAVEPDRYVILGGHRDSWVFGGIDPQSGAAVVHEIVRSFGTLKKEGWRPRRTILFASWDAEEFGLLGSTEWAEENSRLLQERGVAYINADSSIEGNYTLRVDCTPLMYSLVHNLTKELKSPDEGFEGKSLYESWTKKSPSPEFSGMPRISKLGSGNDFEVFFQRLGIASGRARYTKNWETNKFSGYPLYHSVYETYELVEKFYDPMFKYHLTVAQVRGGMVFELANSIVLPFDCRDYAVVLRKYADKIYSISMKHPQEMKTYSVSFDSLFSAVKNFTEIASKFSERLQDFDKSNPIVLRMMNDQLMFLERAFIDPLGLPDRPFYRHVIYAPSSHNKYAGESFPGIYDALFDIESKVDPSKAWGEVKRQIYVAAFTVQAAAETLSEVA

Consider avidin-FITC, for which the MFI is 161 MFI.

These data come from patent US8703918.
